These are literature values, as cited in US11672857B2, “Compositions and methods for a multi-adjuvant only approach to immunoprophylaxis for preventing infections” (University of Southern California, priority 2017, dated 2023).

The subject of this data set is T cell. To be noted: compared with non-glycosylated ovalbumin produced in E. coli.

B1: Yeast-mannosylated ovalbumin: recombinant ovalbumin mannosylated by yeast during production (Lam et al.) (protein, UniProt P01012 2-386, looked up)
Ovalbumin: GSIGAASMEFCFDVFKELKVHHANENIFYCPIAIMSALAMVYLGAKDSTRTQINKVVRFDKLPGFGDSIEAQCGTSVNVHSSLRDILNQITKPNDVYSFSLASRLYAEERYPILPEYLQCVKELYRGGLEPINFQTAADQARELINSWVESQTNGIIRNVLQPSSVDSQTAMVLVNAIVFKGLWEKAFKDEDTQAMPFRVTEQESKPVQMMYQIGLFRVASMASEKMKILELPFASGTMSMLVLLPDEVSGLEQLESIINFEKLTEWTSSNVMEERKIKVYLPRMKMEEKYNLTSVLMAMGITDVFSSSANLSGISSAESLKISQAVHAAHAEINEAGREVVGSAEAGVDAASVSEEFRADHPFLFCIKHIATNAVLFFGRCVSP
modifications: yeast mannosylation
With B1, the T cell proliferation entry was “significantly greater T cell proliferation than did non-glycosylated ovalbumin produced in E. coli”.
